Data on one molecule can be found in PMC9807522 (Cancer Science, 2022).

Assay [1] has as its target recombinant human VEGFR2 protein (Octet) (Homo sapiens, UniProt P35968). As to the kind of experiment: BLI.
In assay [2] the target is VEGFR2 on VEGFR2 overexpressing 293FT cells (Homo sapiens (assumed), UniProt P35968). As to the kind of experiment: cell-based or functional assay.
In assay [3] the target is recombinant rhesus macaque VEGFR2‐His protein (Macaca mulatta, UniProt F7E313). As to the kind of experiment: ELISA. For orientation: ELISA stands for enzyme-linked immunosorbent assay.

Sequence of VEGFR2 on VEGFR2 overexpressing 293FT cells (P35968 20-1356): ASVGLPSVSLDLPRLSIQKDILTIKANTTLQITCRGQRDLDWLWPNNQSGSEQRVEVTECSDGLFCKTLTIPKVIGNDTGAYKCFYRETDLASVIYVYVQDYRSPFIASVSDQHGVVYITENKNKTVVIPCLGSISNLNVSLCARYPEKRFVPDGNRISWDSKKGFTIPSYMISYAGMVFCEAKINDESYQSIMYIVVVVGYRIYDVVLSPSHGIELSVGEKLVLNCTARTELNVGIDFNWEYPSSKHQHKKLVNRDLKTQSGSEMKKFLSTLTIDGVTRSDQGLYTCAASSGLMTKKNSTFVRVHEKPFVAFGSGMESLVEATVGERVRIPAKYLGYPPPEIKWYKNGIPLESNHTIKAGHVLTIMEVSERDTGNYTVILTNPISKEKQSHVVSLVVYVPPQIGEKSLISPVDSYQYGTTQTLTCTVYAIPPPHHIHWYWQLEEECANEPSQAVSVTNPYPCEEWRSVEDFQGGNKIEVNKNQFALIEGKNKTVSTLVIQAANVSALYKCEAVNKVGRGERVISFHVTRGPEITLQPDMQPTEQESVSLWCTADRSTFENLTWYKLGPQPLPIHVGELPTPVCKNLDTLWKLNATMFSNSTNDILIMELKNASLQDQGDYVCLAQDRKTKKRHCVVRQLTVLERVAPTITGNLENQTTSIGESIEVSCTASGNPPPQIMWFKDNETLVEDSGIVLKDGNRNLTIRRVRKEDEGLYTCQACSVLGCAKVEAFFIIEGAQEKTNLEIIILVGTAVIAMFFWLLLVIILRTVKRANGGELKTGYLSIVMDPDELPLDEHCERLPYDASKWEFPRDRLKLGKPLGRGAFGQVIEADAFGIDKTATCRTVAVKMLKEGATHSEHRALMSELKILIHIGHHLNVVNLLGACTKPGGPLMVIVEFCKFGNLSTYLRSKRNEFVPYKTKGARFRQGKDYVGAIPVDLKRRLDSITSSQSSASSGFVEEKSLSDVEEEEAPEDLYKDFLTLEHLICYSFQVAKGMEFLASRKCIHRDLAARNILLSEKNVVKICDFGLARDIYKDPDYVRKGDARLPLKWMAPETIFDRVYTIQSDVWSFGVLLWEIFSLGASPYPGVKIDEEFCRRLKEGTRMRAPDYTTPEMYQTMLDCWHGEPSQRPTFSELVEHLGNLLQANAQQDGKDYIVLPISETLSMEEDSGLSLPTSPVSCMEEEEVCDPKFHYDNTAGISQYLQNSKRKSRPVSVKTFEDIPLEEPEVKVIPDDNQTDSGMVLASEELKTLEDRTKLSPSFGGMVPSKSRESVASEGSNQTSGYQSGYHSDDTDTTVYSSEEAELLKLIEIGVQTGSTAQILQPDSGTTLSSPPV
Sequence of recombinant human VEGFR2 protein (Octet) (P35968 20-1356): as above

B1: ramucirumab (antibody, V domains shown)
VH: EVQLVQSGGGLVKPGGSLRLSCAASGFTFSSYSMNWVRQAPGKGLEWVSSISSSSSYIYYADSVKGRFTISRDNAKNSLYLQMNSLRAEDTAVYYCARVTDAFDIWGQGTMVTVSS
VL: DIQMTQSPSSVSASIGDRVTITCRASQGIDNWLGWYQQKPGKAPKLLIYDASNLDTGVPSRFSGSGSGTYFTLTISSLQAEDFAVYFCQQAKAFPPTFGGGTKVDIK
What is called Kd is the constant that tells how readily two partners part at equilibrium. Turning to B1, the Kd in assay [1] turned out to be 0.0458 nM. Further, in assay [2], the “EC50 of neutralisation of HUVEC proliferation induced by human VEGF-C” value worked out at 0.0874 µg/mL and the “EC50 of neutralisation of HUVEC proliferation induced by human VEGF-C+VEGF-D” value is 0.086 µg/mL. Moreover, the binding result in assay [3] is “binds”.
